For test [1], the target named is T1, human MCP-1/CCL2 (human, UniProt P13500 24-99).
T1 construct: also called Biotin-MCP1
Briefly: ELISA, hybridoma fusion-well supernatant on biotinylated chemokine on streptavidin plate; background approx. 0.150.

In the next test the target is T2, human MIP-1β/CCL4 (human, UniProt Q8NHW4 24-92).
T2 construct: also called Biotin-MIP-1β
T2 chain: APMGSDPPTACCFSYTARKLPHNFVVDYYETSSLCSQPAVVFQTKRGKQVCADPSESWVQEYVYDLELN
The test is described as above.

The next test deals with T3, human RANTES/CCL5 (human, UniProt P13501 24-91).
T3 construct: also called Biotin-RANTES
T3 sequence: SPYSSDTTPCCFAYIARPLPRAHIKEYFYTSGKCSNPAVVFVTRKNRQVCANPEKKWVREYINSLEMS
The description is as above.

Another test deals with T4, mouse MIP-1α/CCL3 (mouse, UniProt P10855 24-92).
T4 construct: also called muMIP-1α
T4 sequence: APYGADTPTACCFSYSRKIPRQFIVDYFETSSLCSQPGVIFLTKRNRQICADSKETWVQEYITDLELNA
Nature of the test: Binding (MSD).

In the next test the target is T5, mouse MIP-1β/CCL4 (mouse, UniProt P14097 24-92).
T5 construct: also called muMIP-1β
T5 sequence: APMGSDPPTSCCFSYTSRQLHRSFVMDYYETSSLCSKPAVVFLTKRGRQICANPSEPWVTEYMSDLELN
Briefly: Binding (MSD).

Test [2] deals with T1, human MCP-1/CCL2. Briefly: MSD electrochemiluminescence assay; chemokine coated at 1 µg/mL, 7D1G at 3 µg/mL; background = BSA.
The next test concerns the target T6, I-309.
T6 construct: also called I-309/CCL1; CCL1
T6 chemokine: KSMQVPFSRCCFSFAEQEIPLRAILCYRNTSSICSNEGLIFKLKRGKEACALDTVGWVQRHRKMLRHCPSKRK
The test is described as above.

A further test addresses T7, MDC.
T7 construct: also called MDC/CCL22; CCL22
T7 chemokine: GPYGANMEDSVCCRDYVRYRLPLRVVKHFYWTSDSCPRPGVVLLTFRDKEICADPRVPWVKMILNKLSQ
The test is described as above.

A further test has as its target T8, MCP-4.
T8 construct: also called MCP-4/CCL13; CCL13
The description is as above.

The target of another test is T9, IL-8.
T9 construct: also called IL-8/CXCL8; CXCL8
The test is described as above.

Another test deals with T10, Eotaxin.
T10 construct: also called Eotaxin/CCL11; CCL11
The test is described as above.

In the next test the target is T11, Fractalkine.
T11 construct: also called Fractalkine/CX3CL1; CX3CL1
T11 chemokine: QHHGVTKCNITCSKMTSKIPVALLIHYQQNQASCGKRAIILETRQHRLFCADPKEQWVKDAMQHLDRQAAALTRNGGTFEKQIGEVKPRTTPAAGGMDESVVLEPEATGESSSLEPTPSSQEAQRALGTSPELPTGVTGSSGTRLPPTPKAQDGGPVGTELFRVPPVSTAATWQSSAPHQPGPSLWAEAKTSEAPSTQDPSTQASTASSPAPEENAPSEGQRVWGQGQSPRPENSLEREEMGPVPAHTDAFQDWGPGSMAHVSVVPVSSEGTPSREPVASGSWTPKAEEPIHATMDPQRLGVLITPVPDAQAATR
The description is as above.

In another test the target is T12, HCC-4.
T12 construct: also called HCC-4/CCL16; CCL16
T12 chemokine: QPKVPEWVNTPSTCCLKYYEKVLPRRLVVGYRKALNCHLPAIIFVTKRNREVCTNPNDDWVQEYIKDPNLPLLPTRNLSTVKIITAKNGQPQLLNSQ
The description is as above.

For a further test, the target named is T13, MCP-3.
T13 construct: also called MCP-3/CCL7; CCL7
The description is as above.

A further test deals with T14, SDF.
T14 construct: also called SDF-1/CXCL12; CXCL12
Described as above.

A further test has as its target T15, MCP-2.
T15 construct: also called MCP-2/CCL8; CCL8
T15 chemokine: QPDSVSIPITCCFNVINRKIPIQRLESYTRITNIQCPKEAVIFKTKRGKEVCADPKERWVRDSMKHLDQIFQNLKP
The description is as above.

The target in a further test is T16, human HCC-1/CCL14/CCL14a (human, UniProt Q16627 28-93).
T16 sequence: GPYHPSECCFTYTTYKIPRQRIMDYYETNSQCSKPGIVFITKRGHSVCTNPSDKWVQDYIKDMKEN
Described as above.

In another test the target is T17, human MIP-1α/CCL3 (human, UniProt P10147 24-92).
T17 construct: also called Biotin-MIP-1α
T17 sequence: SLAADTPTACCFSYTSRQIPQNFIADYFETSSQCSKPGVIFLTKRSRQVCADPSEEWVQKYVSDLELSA
Nature of the test: ELISA, hybridoma fusion-well supernatant on coated MIP-1α; background approx. 0.150. (An ELISA detects its analyte on a solid surface through an enzyme-linked reagent.)

The target of the next test is T18, mouse RANTES/CCL5 (mouse, UniProt P30882 24-91).
T18 construct: also called muRANTES
Briefly: MSD electrochemiluminescence, chemokine coated at 1 µg/mL.

These results are taken from patent US20150166647A1 (VLST, published 2015).

T1 sequence (P13500 24-99 limits assumed): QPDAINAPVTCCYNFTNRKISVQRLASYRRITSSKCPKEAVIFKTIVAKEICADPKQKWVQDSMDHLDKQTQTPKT
T8 sequence (chemokine, as listed by the source): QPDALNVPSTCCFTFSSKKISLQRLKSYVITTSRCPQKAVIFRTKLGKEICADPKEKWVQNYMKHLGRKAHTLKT
T14 sequence (chemokine, as listed by the source): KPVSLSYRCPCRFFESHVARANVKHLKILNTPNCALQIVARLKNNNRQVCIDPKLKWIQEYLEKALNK
T13 sequence (chemokine, as listed by the source): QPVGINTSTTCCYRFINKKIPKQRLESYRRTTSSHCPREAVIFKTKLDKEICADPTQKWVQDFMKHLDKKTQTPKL
T10 sequence (chemokine, as listed by the source): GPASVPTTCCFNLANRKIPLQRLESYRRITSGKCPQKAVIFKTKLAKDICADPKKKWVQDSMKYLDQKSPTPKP
T18 sequence (P30882 24-91 limits assumed): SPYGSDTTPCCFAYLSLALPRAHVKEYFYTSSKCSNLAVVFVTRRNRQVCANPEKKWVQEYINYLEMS
T9 sequence (chemokine, as listed by the source): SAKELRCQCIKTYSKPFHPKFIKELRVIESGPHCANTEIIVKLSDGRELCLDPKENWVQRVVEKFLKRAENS

B1: monoclonal antibody 7D1G (antibody, V domains shown)
VH: QVQLQQPGAELVKPGASVKMSCKASGYTFTSYNIHWVKQTPGQGLEWIGAVSPRNGDTSYNQRFKGKATLTADISSSTAYMQLSSLTSEDSAVYYCARGYGYDYWGQGTTLTVSS
VL: DVVLTQSPATLSVTPGDRVSLSCRASQSVSKYLHWYQQKSHESPRLLIKYVSQSISGIPSRFSGSGSGTDFTLSINSVETEDLGMYFCQQSNSWPHTFGAGTKLELK
notes: also called MAb 7D1G
Take B1: the ELISA signal with human MCP-1/CCL2 [1] stood at 0.22; with human MIP-1β/CCL4, 2.57; with human RANTES/CCL5, 0.145; in the test with human MIP-1α/CCL3, 1.7. Further, the binding result is listed as “binds” in the test with mouse MIP-1α/CCL3; “binds” with mouse MIP-1β/CCL4; “no binding (tested: 3 µg/mL)” with human MCP-1/CCL2 [2]; “no binding (tested: 3 µg/mL)” in the test with I-309; “no binding (tested: 3 µg/mL)” with MDC; “no binding (tested: 3 µg/mL)” with MCP-4. Further, the binding result with IL-8, in the test with Eotaxin, in the test with Fractalkine, with HCC-4, with MCP-3 and with SDF was “no binding (tested: 3 µg/mL)” in each case. Moreover, the results for the binding result with MCP-2, with human HCC-1/CCL14/CCL14a and with mouse RANTES/CCL5 were “no binding (tested: 3 µg/mL)”, “binds” and “no binding (tested: 3 µg/mL)”, respectively.
